System: MS2 coat protein
Assay: apparent KD of MS2 coat protein; designed switch direction (-1 OFF switch, 1 ON switch): -1; higher = weaker reporter binding
In short: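 For each design, the apparent KD is the median over clusters of curves fitted to normalised cluster fluorescence. Clusters held RNA switches with common flanks, transcribed on Illumina chips by stalled E. coli RNA polymerase. These were titrated with SNAP-549-labelled MS2 coat protein, doubling from 0.7 or 1.5 nM to 3 µM, without input, with 200 uM small-molecule ligand, or with an oligonucleotide input.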

[1] = Eterna round: R95, input ligand: microRNA oligo, concentration not stated
[2] = input ligand: microRNA oligo, concentration not stated
[3] = Eterna round: R95, input ligand: FMN 200 uM
[4] = Eterna round: R95, input ligand: none

Row | Sequence | apparent KD of MS2 coat protein [1] [nM] | apparent KD of MS2 coat protein (input ligand: FMN 200 uM) [nM] | apparent KD of MS2 coat protein (input ligand: none) [nM] | further results
1 | ACAGCGUGAGGAUAUACAUGAGGAUCACCCAUGUAUGGCAGGUUAUCCUGUCGUAAGUGUAGAAGGCACGCUGU [Exclusion 3 - Oddities v.4 ( A small slide from ms2 to fmn)] (puzzle: Exclusion 3) | 18.8 | – | – | –
2 | UCGCUGCGAGGAUAUACAUGAGGAUCACCCAUGUACGGGUCCGGGUCUUUGUCGAUUGGUAGAAGGCGCAGUGA [JL Laongeedie mod 10] (puzzle: Exclusion 3) | 50.3 | – | – | –
3 | CUUUGCACGCUGCGGUCCUACAUGAGGAUCACCCAUGUGGUCUGGUGGCGUGGGUCGCCGGACUUGGCUCGUCUUGG [salish99_S_TOV1_R5_042] (Eterna round: R97, puzzle: Sensor, turn-off variant 1) | – | 15.1 | 15.7 | –
4 | UACCUGAGGCAAAGCUUUAGGUAAACAUGAGGAUCACCCAUGUAGGAUAUGGUAGGCAAAGCUUACCAGAAGGACAUGAUAAUU [Mat - Exclusion NG 3 - Mod of JL - D35] (Eterna round: R96, puzzle: Exclusion NG 3) | – | 544 | 80.4 | apparent KD of MS2 coat protein [2]: 79.2 nM
5 | CUUUCGUGAGGAUAUCAGUAGUAAUAAAAUAAAAUUACUACUGAGAAGGCACAUGAGGAUCACCCAUGUUCCUC [salish99_ex3_r3_098] (puzzle: Exclusion 4) | 23.5 | – | – | –
6 | AUAAAUCAUGUAGGAUAUGCGUGGCAAAGCUAUGCAGAAGGACAUGAGGAUCACCCAUGUUCUUCCGUCUGCGUACAGACGGAA [Mat - Exclusion NG 1 - Mod of JL - D40] (Eterna round: R96, puzzle: Exclusion NG 1) | – | 418 | 37.3 | apparent KD of MS2 coat protein [2]: 31.4 nM
7 | GCAGAUGUAGUGAGGAUAUGCUCUACCUCGGUAGAGCAGAAGGCACAUGAGGAUCACCCAUGUGAUUCAUCUGC [Omei Ex4B B7] (Eterna round: R97, puzzle: Brourd's mod of Exclusion 4) | – | 211 | 28.6 | –
8 | GCGAUUUCCGAGGAUAUCCUGCACACUAUCUAAGGAGAAGGCGGAACUUGAGGAUCACCCAAGUGCAUCCGAAU [Isusbe] (Eterna round: R97, puzzle: Exclusion 6) | – | 135 | 39.5 | –
9 | CAACAUGAGGAUCACCCAUGUGGCCCUACGUGCUGGCUCGGGCAGGAUAUUAACCAAUGAGUAGUUAAGAAGGGCUCGCAAGUA [Eternabot solution 14] (Eterna round: R96, puzzle: Exclusion NG 3) | – | 223 | 76.6 | apparent KD of MS2 coat protein [2]: 40.6 nM
10 | ACAAGCAGAGAGUAAAUGGACAUGAGGAUCACCCAUGUGAGUCCAAGGAGAUAAGAUAUUAAAAAGGCUCGUCUUAU [AK-miRNA-r3-19] (Eterna round: R97, puzzle: Sensor, turn-off variant 1) | – | 112 | 98.3 | –
11 | CCUCUACAUGAGGAUCACCCAUGUGAGGAUAUCUCGGAGCAGCCACUUAAAGCACUCCAGAGAAGGCACGUGUA [Mavemain] (puzzle: Exclusion 1) | 15.5 | – | – | –
12 | CCAUGUUAGCAGGAUAUGCUAUUAAUCUUUUAUGCAGAAGGGCUUACAUGAGGAUCACCCAUGUAUUAAGUCAA [JR_E6_Sub077] (puzzle: Exclusion 6) | 13.2 | – | – | –
13 | AGAGUGCUGCGAGGAUAUACAUGAGGAUCACCCAUGUUUUCGUGUGAGGCUUUGCCUCACACGAAGUAGAAGGCGCAGUACUCU [Mat - Exclusion NG 2 - Mod of JL - D31] (Eterna round: R96, puzzle: Exclusion NG 2) | – | 7.9 | 12.2 | apparent KD of MS2 coat protein [2]: 8.79 nM
14 | AGUAACUCAAGAGGAUAUCACAUGAGGAUCACCCAUGUAUAGCGCGCUACGCUAGUCCUCGUAUUUGAGAAGGUUUGAUAAAUG [Quve] (Eterna round: R96, puzzle: Exclusion NG 2) | – | 10.4 | 14.3 | apparent KD of MS2 coat protein [2]: 11.4 nM
15 | UAUAAGCUAGGAUAUCGCUGAGUAAACAUGAGGAUCACCCAUGUGGACCAUGAUUGCCACCGAGAAGGAGCGGGAA [Aonat] (puzzle: Exclusion 5) | 53.7 | – | – | apparent KD of MS2 coat protein [3]: 119 nM; apparent KD of MS2 coat protein [4]: 56.8 nM
16 | UCUGGUCGAGGAUAUAUAUGACGUGCUUCGGCACGAAGGUCACAUGAGGAUCACCCAUGUAGAAGGCGACCAGA [E2/9-A3] (Eterna round: R97, puzzle: Exclusion 2) | – | 375 | 52.1 | –
17 | GAUAGAGAGCAGGAUAUCUUGGAUAAGUGUUGUAGAGAAGGGCUCACAUGAGGAUCACCCAUGUGGUCCUAGAU [JL Dibiri mod 09] (puzzle: Exclusion 6) | 13.2 | – | – | apparent KD of MS2 coat protein [3]: 37.5 nM; apparent KD of MS2 coat protein [4]: 14.3 nM
18 | UUAAAUCAUGUAGGAUAUGCGUGGCGAAGCUAUGCAGAAGGACAUGAGGAUCACCCAUGUUCAUCCGUCUGCGUACAGAUGGAA [JL Eng1 1.08 mod 1] (Eterna round: R96, puzzle: Exclusion NG 1) | – | 271 | 28.2 | apparent KD of MS2 coat protein [2]: 21.6 nM

Row | Sequence | apparent KD of MS2 coat protein [1] [nM] | apparent KD of MS2 coat protein (input ligand: FMN 200 uM) [nM] | apparent KD of MS2 coat protein (input ligand: none) [nM] | further results
19 | CCUCGUAACUAGGAUAUCCGAAAUAAGCGAGGAGGAGAAGGAGUUACAUGAGGAUCACCCAUGUGAUAUAAAGA [Orisxe] (puzzle: Exclusion 6) | 15.5 | – | – | apparent KD of MS2 coat protein [3]: 46.9 nM; apparent KD of MS2 coat protein [4]: 17.4 nM
20 | AAAUCCGCUGAGGAUAUUAUGAGUGAGAGCUCAUGAGAAGGCGGUACAUGAGGAUCACCCAUGUCUAUGGGCAA [Ex-6 Malc#26] (puzzle: Exclusion 6) | 329 | – | – | –
21 | UUAUUGGUUGUGAGGAUAUCGGAUAGAUAGAUAUUCGAGAAGGCACAUGAGGAUCACCCAUGUGUGAUUAGAAA [JR_BMEx4_Sub048] (Eterna round: R97, puzzle: Brourd's mod of Exclusion 4) | – | 193 | 25.9 | –
22 | GAAAAUUGAGGAUAUCCAAAAGGCCACAUGAGGAUCACCCAUGUGUAUCCUCGGCCCAAAGGAGAAGGCAAGAUAA [EX5 A.23] (Eterna round: R97, puzzle: Exclusion 5) | – | 974 | 5080 | –
23 | ACUGGUCGAGGAUAUACAUGAGGAUCACCCAUGUGAUCAGCAGUCCUCGGACUGCAAUGUAGAAGGCGACCAGU [E3/1-A2] (Eterna round: R97, puzzle: Exclusion 3) | – | 143 | 356 | –
24 | GUAAUUGAUGUCAGGAUAUCAGGGCCACAAUGCUAUGAGAAGGGACAUGAGGAUCACCCAUGUAAAAGUUCAUG [BmEX4 B.16] (Eterna round: R97, puzzle: Brourd's mod of Exclusion 4) | – | 180 | 69.8 | –
25 | UUAGUUGGAGGAUAUACGCCGUUUGACAUGAGGAUCACCCAUGUAGAGGCUUAUGUCAAUGUAGAAGGCCGUUUGG [Eternabot (L2) Solution 12] (Eterna round: R97, puzzle: Exclusion 5) | – | 26.3 | 18.7 | –
26 | CUUUUGUGAGGAUAUUAGUAGUAAAUAAAUAAAAUUAUUACUGAGAAGGCACAUGAGGAUCACCCAUGUUCCUC [salish99_ex4_r3_062] (puzzle: Exclusion 4) | 35.1 | – | – | –
27 | GUGUAGAUAGGAUAUACAUGAGUCUAGCGAAGCUAGAUUCUACAUGAGGAUCACCCAUGUAGAAGGGUCUACAC [Fiskers Ex 2 - 28] (puzzle: Exclusion 2) | 14.3 | – | – | –
28 | AGGUAGUCAGGAUAUUAGUAGUAGCGGGAUAACGCUACUAUUGAGAAGGGACAUGAGGAUCACCCAUGUUUUGU [JR_Ex4_Sub067] (Eterna round: R97, puzzle: Exclusion 4) | – | 54.7 | 22.5 | –
29 | UUGUUAUAUGUAGGAUAUGCAUAUUAUUAUUAUGCAGAAGGACAUGAGGAUCACCCAUGUAUAUUAUUGUUAUAUGUUAUAUAU [Title] (Eterna round: R96, puzzle: Exclusion NG 1) | – | – | – | apparent KD of MS2 coat protein [2]: 16.6 nM
30 | AUCUUGUCAGGAUAUCUGACAAGUGACUUCGGUCACAGUUCAGAGAAGGUACAUGAGGAUCACCCAUGUAGAAC [Ex4-3: 39] (puzzle: Exclusion 4) | 17.9 | – | – | –
31 | CUCCGGCGUGUAGGAUAUGGUUCCGUUUAGGAUCCAGAAGGACAUGAGGAUCACCCAUGUACAUGUCGUCGGUCGUCACCGGGC [salish99_ExNG1_r04_212] (Eterna round: R96, puzzle: Exclusion NG 1) | – | 110 | 28.5 | apparent KD of MS2 coat protein [2]: 24.5 nM
32 | AGUACUAACACGAAAGUGUUAGUACUAUAAGCUUGUGUUACAUGAGGAUCACCCAUGUCCUCAUAAGCUCGUCUUAA [Mat - Sensor v3 - Turn-off var 2 - D63] (puzzle: Sensor v3, turn-off variant 2) | 437 | – | – | apparent KD of MS2 coat protein [3]: 35.2 nM; apparent KD of MS2 coat protein [4]: 41 nM
33 | AGUACUAACACGAAAGUGUUAGUACAAUAAGCUUGUGAUACAUGAGGAUCACCCAUGUCCUCAUAAGCUCGUCUUAU [salish99_TOv2_r3_045] (puzzle: Sensor v3, turn-off variant 2) | 652 | – | – | apparent KD of MS2 coat protein [3]: 24.7 nM; apparent KD of MS2 coat protein [4]: 21.9 nM
34 | GUUUACAAGCUAAGAUCCUACAUGAGGAUCACCCAUGUGGUCCGGUGACGUGAGUCACCGGACUUAGCUCGUCUUGA [salish99_S_TOV1_R5_092] (Eterna round: R97, puzzle: Sensor, turn-off variant 1) | – | 32.4 | 31 | –
35 | AAAAGGUGAGGAUAUGAGGCGCCGGGCCGGUUGGUGCGGAUUCAGAAGGCACAUGAGGAUCACCCAUGUAAUAA [Excls4-II] (puzzle: Exclusion 4) | 38.7 | – | – | apparent KD of MS2 coat protein [3]: 52.2 nM; apparent KD of MS2 coat protein [4]: 50.4 nM

Reference: the supplement of paper PMC9170038
